According to the nanobody polyreactivity screen of Harvey et al. (2022):

Test: yeast display, Sf9 membrane polyspecificity reagent, FACS + sequencing; frameworks hold sequencing errors
How it was run: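 Polyreactivity labels are assigned by the sorting gate from which each nanobody was recovered. The gates were low and high (top ~1%), set on anti-HA fluorescence for expression and streptavidin fluorescence for reagent binding. Before sorting, galactose-induced (36–48 hours) yeast display cells were stained for 1 hour at 4 °C with 10% biotinylated, detergent-solubilized Sf9 membrane reagent.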

Row | Sequence | polyreactivity (PSR sort gate)
1 | QVQLVESGGGLVQAGGSLRLSCAASVNIFQSYTMGWYRQAPGKERELVARITARGGRTYYADSVQGRFTISRDNANNTVYLQMNSLKPEDTAFYYCAAQHRGPYGVDYWGQGTQVTVSS | high polyreactivity
2 | HVQLVESGGGLVQAGGSLRLSCAASGIIFYQYAMGWYRQAPGKERELVATISSNGGATYADSVKGRFTISRDNAKNTVYLQMNSLKPEDTAVYYCNAGGRYHAPSGDYWGQGTQVTVSS | low polyreactivity
3 | QVQLVQSGGGLVQAGGSLRLSSAASGRIFATNAMGWYRQAPGKERELVAAITTSGGSTYYADSVKGRFTISRDNAKNTVYLHLNSLKPEDTAVYYCAARRGPNSYRWRMGYWGHGTQVTVSS | high polyreactivity
4 | QVQLQESGGGLAQAGGSQRLSCAASGTIFAADSMGWYRQAPGKERELVAGITSGANTYYADSVKGRYTISHDNAKKTVYLQMDSLIPEAIAVYYCAAPGSTTYDLEYWGQGTQVTVSS | high polyreactivity
5 | QVQLVESGGGLVQAGGSLRLSCAASGSIFSTYAMGWYRQAPGKERELVAALDDDGGSTYYADSVKGRFTISRDNAKNTVYLQMNSLKPEDTAVYYCNADYDGNGWAGDYSDSYDYWGQGTQVTVSS | low polyreactivity
6 | QVQRVESGGALVQAGGSHRLSCAASGSIFYAYAMGWYRLAPGKERELVAAIRSSDSRTYYADSVKGRFTISRDNAKKTVYLQMNCLKPEETAVYYCAAEGSRNVKFDYCGQGTQVTVSS | high polyreactivity
7 | QVQLVESGGGLVQAGGRLRLSSDASGLTFPTNAMGRYRQAHGKETEFVAAITSRGGTTYYADSVKGRFTISRDNAKNTVYLQMNSLKPEDTAVYYCAALSVTIYQSYRYGYWGQGTQVTVSS | low polyreactivity
8 | QVQLVESGGGLVQAGGSLRLSCAASGSTLPSYAMGWYRQAPGKERELVAAISSSGGRTYYADSVKGRFTISRDNAKNTVYLQMNSLKPEDTAVYYCAALSVANYHGTDSGYWGQGTQVTVSS | high polyreactivity
9 | QVQLVESGGGLVQAGGRLRLSCAASGRIFDANVMGWYRQAPGKERELVAAISSGGRTKYADSVKGRFTISRDNAKNNVYLQMNSLKPEDTAVYYCAKKHSPLYDYWGQGTQVTVSS | low polyreactivity
10 | QVQLVESGGGLVQAGGSLRLSCAASGRILVLNAMGWYRQAPGKERELVADITSGGSTYYADSVKGRFTISRDNAKNTVYLQMNSLKPEDTAVYYCAADLPYSLDYRSEDDYWGQGTQVTVSS | low polyreactivity
11 | QVQLVESGGGLVQAGGSLRLSCAASGRTLAPYAMGWYRQAPGKERELVAISTIGGSTYYADSVKGRFTISRDNAKNTVFLQMNSLKPEDTAVYYCNADATDSYPEKDEHDSWGQGTQVTVSS | low polyreactivity
12 | QVHLVESAGGLVQAGGSLRLRCDASGRTFVLYTMGWYRQAPGKERELVAAIYGSGGRTYYADSVKGRLTISRDNAKNTVYLQMNSLKPEDTAVYYCAAYCQGLPLYGYWGQGTQVTVSS | high polyreactivity
13 | QVQRVESGGVLVQAGGSLRLSCAASGGIFYYYTMGWYRQAPGKERELVAAINWSGGSTYYADSVKGRFTISRDNAKNTVYLQMNSLKPEDTAVYYCNAVYRHPVTYGYWGQGTQVTVSS | high polyreactivity
14 | QVQLVESGGGLVQAGGSLRLSCAASGSIFNVYVMGWYRQAPGKERELVAAITWSGGTTYYADSVKGRFTISRDNAKNTVYLQMNSLKPEDTAVYYCAAEVWYFYDGYDYWGQGTQVTVSS | high polyreactivity
15 | QVQLVESGGGLVQAGGSLRLSWAAYGRTILWYTMGWYRQAPGKERDLVADISSSGGTTFYADSVKGRFTISRDNAKNTVYLQMNSLKAVDNAVYYCKRNARKLRTVHSSVVGLDYWGQGTQVTVSS | low polyreactivity
16 | QVPLVESGGGLVQAGGSLRIRCAASGSIFAGNALGWYRQAPGKEWELVAAIARRGGSTYYADSVKGRFTISRDNAKNTVYLQMNSLKPEDTAVYYCNDLLRYAYHAAFGYWGQATQVTVSS | high polyreactivity
17 | QVQLVESGGGLVQAGGSLRLSCAASGSTIYYNAMGWYRQAPGKERELVATITSAGRTNYADSVKGRFTISRDNAKNTVSLLMNSLKPEDTAVYYCNARYRLSRYNYWGQGTQVNVSS | low polyreactivity
18 | QVQLVESGGCLVQAGGSLRLSCAASGSIFGYYAMGWYRQAPGKERELVAAISYSGGSTYYADSVKGRFTISRDTAKNTVYLQMNSLKPEDTAVYYCNAVTSWAYWRGPRYDYWGQGTQVTVSS | high polyreactivity
19 | QVQLVESGGGLVQAGGSLRLSCAASGIIFQYYAMGWYRPAPGKEREWVAAITSSGDRTYYADSVKGRFTISRDNAKNNVILQMNSLNPEDTAVYYCNAVYYLDYHYGYEFGYWGQGTQVTVSS | high polyreactivity
20 | QVQLVESGGGLVQAGGSLRLSCAASGSIFRRYAMGWYRQAPGKERELVAAISIGGGSTYYADSVKGRFTISRDNAKITVYLQMNSLKPEDTAVYYCNAYWKDDFEDGPGRRGMDYWGQGTQVTVSS | low polyreactivity
21 | QVQLVESGGGLVQAGGSLRLSCAASGRTFTRYAMGWYRQAPGKERELVAAISRRGGRTFYADSVKGRFTISRDNAKNTVYLQMNSLKPEDTAVYYCAADYKSSPPLPEYDYWGQGTQVTVSS | high polyreactivity
22 | QVQLVESGGGLVQAGGSLRLSCAASGSTFGTNAMGWYRQAPGKEREFVASISVSGGSTYYADSVKGRFTISRDNAKNTVYLQMNSLKPEDTAVYYCNRRAYRRYQFGYWGQGTQVTVSS | high polyreactivity

Row | Sequence | polyreactivity (PSR sort gate)
23 | QVQLVESGGGLVKAVGSLRLSCAASGINLIRYVMGLYRQAPGKERELVAAISGSGGRTYYADSVKGRFTISRDNAKTTVDLQMNSLKPEDTAVYYCAAVSFRTTHGEYDYWGQGTQVTVSS | low polyreactivity
24 | QVQLVESGGGLVQAGGSLRLSCAASGRTFGDNAMGWYRQAPWKERELVAAISRSGRTYYADSVKGRFTISRDNAKNTVYLQMNSLKPEYTAVYYCNTPYAHYVTHGLDYWGQGTQVTVSS | high polyreactivity
25 | QVQLVESGGGLVQAGGSLRLSCAASGSIFITYARGWYRQAPGKERELVAAIRDSGDRTYYADSVKGRFTISRDNAKNTVYLQMISLKPEDTAVYYCNARWQEPLKYDYWGQGTQVTVSS | low polyreactivity
26 | QVQLVESGGGLVQAGGSLRLSCAASGSTFTGNAMGWYRQAPGKERELVAAITKGGSRTYYADSVKGRFTISRDNAKNTVYLQMNSLKPEDTAVYYCAATSRGTDYWGQGTQVTVSS | high polyreactivity
27 | QVQLVESGGGLVQAGGSLRISCAASGYMFPWYTMGWYRQAPGKERELVAAITSGSSTYYADSVKGRFTISRDNAKNTVYLQMNSLKPEDTAVYYCNAYDDAYRLYRLRGRDYWGQGTQVTVSS | low polyreactivity
28 | QVQLVESGGGLVQAGGSLRLSCAASGRTFRIYAMGWYRQAPGKERELVATISGRGGNTYYADSVKGRFTISRDNAKNTVYLQMNSLKPEDTAVDYCAADDATAYRVDGFKYDYWGQGTLVTVSS | high polyreactivity
29 | QVQLVESGGGLVQAGGSLRLSCAASGRTLSFYAMGWYRQAPGKERELVAAISRRGGSTYYADSVKGRFTISRDNAKNTVYLQMNSLKPEDTAVYYCAARRWYPYKNYDYWGQGTQVTVSS | high polyreactivity
30 | QVQLEESGGGLVHAGGSLRLSCAASGSTFRPYAMGWYRQAPGKERELVAAIRKIGGRTYYADSVKGRFTISRDNAKNTVYLQMNSLKPEDTAVYYCNKRIGGGVHAYNYWGQGTQVTVSS | low polyreactivity
31 | QVQLVESVGGLVKAGGSLRLSCAASGFIFYRYTMGWYRQDPGKERELVAGISSRGTRTYYADSVKGRFTISRDNAKNTVYLQMNSLKPEDTAVYYCAAVLTQPKKVNYWGQGTQVTVSS | high polyreactivity
32 | QVQLVESGGGLVQAGGSLRLSCAASGRIFGYYGMGWYRPAPGKERELVAAITYRGGSTYYADSVKGRFTISRDNAKNTVYLQMNSLKPEDTAVYYCAADGYSHYPYLYDYWGQGTQVTVSS | low polyreactivity
33 | QVQLVESGAGLVQAGGSLRLSCAASGSIFDDYAMGWSRQAPGKESELVAAISSSGTSTYYADSVKGRFTISRDNAKNTVYLQMNSLKPEDTAVYYCNRGLAARVGSGDYWGQGTQVTVSS | low polyreactivity
34 | QVQLVESGGGLVQAGGSLRLSCAASGFTFYYYAMGWSRQAPGKERELVAAISTRDGNTYYADSVKGRFTISRDNAKNTVYLQRNSLKPEDTAVYYCAADYFRYYPYDYWGQGTQVTVSS | low polyreactivity
35 | QVQHVESRGGLVQAGGSLRLSCAASGNTFWYNAMGWYRQAPGKERELVAAITTSDFGTYYADSVKGRFTISRDNAKNTVYLQMNSLKPEDTAVYYCAAEVYTQRPYYYPAYDYWGQGTQVTVSS | high polyreactivity
36 | QVQLVESGGGLVQAGGSLRLSCAASGRIFTGYTMGWYRQAPGKERELVAGITRGGSTYYADSVKGRFTISRDNAKNTVYLQMNSLKPEDTAVYYCAADYPRFWYHSWYVPAYYYWGQGTQVTVSS | high polyreactivity
37 | QVQLQECGGGLVQAGGSLRLSCAASGNIFDADIMGWYRQAPGKERELVASVTDGGSTNYADSVKGRFTISRDNAKITVYLQLNSLKPEDTAVYYCAAIVYPDILTDFDYDYDYFYWGQGTQVTVGS | low polyreactivity
38 | QVQLVESGGGLVQAVRSLRLSCAASGFTFNGNAMGWYRQAPGKDRELVAAISYSGGSTYYADSVKGRFTISRDNAKNTVYLQMNSLKPEDTAVYYCAADRTAYSVRAYTKDHSGHDYWGQGTQVTVSS | low polyreactivity
39 | QVQLVESGGGLVQAGGSLRLSCAASGYIFYRNAMGWYRQAPGKEREFVAAISSSGVSTYYADSVKGRFTISRDNAKNTVYLQMNSLKPEDTAVYYCAASYLTWKRRYDYWGQGTQVTVSS | high polyreactivity
40 | QVQLVETGVGLVQAGGSLRLSCAASGSTFPGYAMGWYRQAPGKERELVAAISASGGSTYYADSVKGRFTISRDIAKNTVYLQMNSLKPEDTEVYYCAKVLSRGASAHDYWGLGTQVTVSS | low polyreactivity
41 | QVQLVESGGGLFQAGGSLRLSCAASGLTFYRYVMGWYRQAPGKERELVAAISDSGGSTYYADSVKGRFTISRDNAKNTVYLQMNSLKPEDTAVYYCAAEAPSFVYYSRYDYWGQGTQVTVSS | high polyreactivity
42 | QVQLVESGGGLVQAGGSLRLSCAASGRTFPRYAMGWYRQAPGKEMELVAAISVRAGITYYADSVKGRFTISRDNAKNTVYLQMNSLKPEDTAVYYCAKDHWTTSYDEGDYWGQGTQVTVSS | low polyreactivity
43 | QVQLVESGGGLVQAGGSLRLSCAASARIIGTYAMGWYRQATGKERELVAASTRGGTTYYADSVKGRFTISRDNAKNTVYLQMNSLIPEDTAVYYCATGPAIRYDYWGQGTQVTVSS | low polyreactivity
